Reference: US8357518B2, “Thermostable enzymes for the hydrolysis of mannan-containing polysaccharides” (The Board of Trustees of the University of Illinois, priority 2010, dated 2013)

Columns and labels:
[1] = substrate: O=[N+]([O-])c1ccc(O[C@@H]2O[C@H](CO)[C@@H](O)[C@H](O)[C@@H]2O)cc1; test: Catalytic efficiency with pNP-linked sugars (Man5A-TM1); format: biochemical, Caldanaerobius polysaccharolyticus; conditions: other: Man5A-TM1, pNP substrates, citrate buffer 50 mM, pH 5.5, 65° C., triplicate
Description: The plasmid constructs were then introduced into E. coli BL-21 CodonPlus (DE3) RIL competent cells by heat shock, and grown overnight in lysogeny broth (LB) agar medium supplemented with ampicillin (100 μg/mL) and chloramphenicol (50 μg/mL) at 37° C. After 12 h, single colonies were selected and used to inoculate fresh LB (10 mL) supplemented with the antibiotics above at the same concentrations, followed by culturing with aeration for 8 h at 37° C. The pre-cultures were then inoculated into fresh LB (1 L) supplemented with ampicillin and chloramphenicol and the cultures were incubated at 37° C. with vigorous aeration (225 rpm/min). […] Aliquots of eluted fractions were analyzed by sodium dodecyl sulfate-polyacrylamide gel electrophoresis (SDS-PAGE) and protein bands were visualized by staining with Coomassie brilliant blue G-250. […] The UV absorbances of the protein solutions were recorded at 280 nm using a Nanoprop 1000 from Thermo Scientific (Waltham, Mass.) and the protein concentrations were calculated using the following extinction coefficients: Man5A-TM1, ε280 nm=189 mM^−1 cm^−1; Man5A-TM2, ε280 nm=113 mM^−1 cm^−1; Man5B, ε280 nm=103 mM^−1 cm^−1.
Hydrolysis of para-nitrophenyl (pNP) linked sugars. […] The extinction coefficient of pNP at pH 5.5 was determined as 1636 M^−1 cm^−1.

[2] = substrate: OC[C@H]1O[C@@H](O[C@H]2[C@H](O)[C@@H](O)[C@H](O[C@H]3[C@H](O)[C@@H](O)C(O)O[C@@H]3CO)O[C@@H]2CO)[C@H](O)[C@@H](O)[C@@H]1O; test: purified protein, by the assay type; conditions: other: Man5B 3 nM, oligosaccharide 30 μM, citrate buffer 50 mM, pH 5.5, 5 min, triplicate
[3] = substrate: OC[C@H]1O[C@@H](O[C@H]2[C@H](O)[C@H](O)[C@H](O[C@H]3[C@H](O)[C@H](O)[C@H](O[C@H]4[C@H](O)[C@H](O)C(O)O[C@@H]4CO)O[C@@H]3CO)O[C@@H]2CO)[C@@H](O)[C@@H](O)[C@@H]1O; test: purified protein, by the assay type; conditions: other: Man5B 3 nM, oligosaccharide 30 μM, citrate buffer 50 mM, pH 5.5, 5 min, triplicate
[4] = substrate: O=[N+]([O-])c1ccc(O[C@@H]2O[C@H](CO)[C@@H](O)[C@H](O)[C@@H]2O)cc1; test: Kinetic properties with pNP-linked sugars (Man5B wild type); format: biochemical, Caldanaerobius polysaccharolyticus; conditions: other: wild type Man5B 5 nM, substrate 0.06 to 10 mM, 65° C., citrate buffer pH 5.5
Description: (§1) The plasmid constructs were then introduced into E. coli BL-21 CodonPlus (DE3) RIL competent cells by heat shock, and grown overnight in lysogeny broth (LB) agar medium supplemented with ampicillin (100 μg/mL) and chloramphenicol (50 μg/mL) at 37° C. After 12 h, single colonies were selected and used to inoculate fresh LB (10 mL) supplemented with the antibiotics above at the same concentrations, followed by culturing with aeration for 8 h at 37° C. The pre-cultures were then inoculated into fresh LB (1 L) supplemented with ampicillin and chloramphenicol and the cultures were incubated at 37° C. with vigorous aeration (225 rpm/min). The cultures were grown to an optical density of 0.3 at 600 nm, and the temperature was shifted to 16° C. and gene expression was induced by the addition of 0.1 mM isopropyl β-D-thiogalactopyranoside (IPTG). After 16 h of growth, the cells were harvested by centrifugation (4000×g, […], 4° C.), the cell pellets were then re-suspended in 30 mL lysis buffer (50 mM Tris-HCl, 300 mM NaCl, pH 7.0), and ruptured by two passages through an EmulsiFlex C-3 cell homogenizer from Avestin (Ottawa, Canada). The cell lysate was then clarified by centrifugation at 20,000×g for 30 min at 4° C. to remove cell debris. The lysate containing recombinant protein was then incubated at 65° C. for 30 min, and centrifuged at 20,000×g for 15 min at 4° C. to remove heat labile E. coli proteins. The recombinant proteins were then purified from the heat treated supernatant using the Talon Metal Affinity Resin according to the supplier's protocol, with the exception that Tris-based binding (50 mM Tris-HCl, 300 mM NaCl, pH 7.5), and elution (50 mM Tris-HCl, 300 mM NaCl, 250 mM Imidazole, pH 7.5) buffers were employed. Aliquots of eluted fractions were analyzed by sodium dodecyl sulfate-polyacrylamide gel electrophoresis (SDS-PAGE) and protein bands were visualized by staining with Coomassie brilliant blue G-250. Elution fractions were pooled and the proteins were then exchanged into protein storage buffer (50 mM Tris-HCl, 150 mM NaCl, pH 7.5) by three successive concentration and dilution cycles with Amicon Ultra-15 centrifugal filter units (Man5A-TM1, Man5A-TM2, 50,000 MWCO; Man5B,10,000 MWCO). The UV absorbances of the protein solutions were recorded at 280 nm using a Nanoprop 1000 from Thermo Scientific (Waltham, Mass.) and the protein concentrations were calculated using the following extinction coefficients: Man5A-TM1, ε280 nm=189 mM^−1 cm^−1; Man5A-TM2, ε280 nm=113 mM^−1 cm^−1; Man5B, ε280 nm=103 mM^−1 cm^−1.
(§2) Determination of kinetic properties for wild type and mutant Man5B with pNP-linked sugars. Kinetic properties of wild type and mutant Man5B were determined for pNP-β-D-mannopyranoside and pNP-β-D-cellobioside. The substrate concentrations ranged from 0.06 to 10 mM and reactions were performed at 65° C. in citrate buffer (50 mM sodium citrate, pH 5.5). The reactions were equilibrated to 65° C. using a thermostated Cary 300 UV-Vis spectrophotometer, and the reactions were initiated by the addition of wild type (5 nM, final concentration) or mutant (2 μM, final concentration) Man5B. The rate of pNP release was determined by continuously monitoring the absorbance at 400 nm. Initial rate data were then plotted against the substrate concentrations, and the values of the Michaelis-Menten constant (KM) and the maximum velocity (Vmax) were estimated from a nonlinear curve fit using GraphPad Prism v5.01 from GraphPad Software (San Diego, Calif.). The kcat was calculated as the quotient of the Vmax and the concentration of enzyme used in the reaction.
(§3) Next, to test whether the mutations introduced in Man5B had any effects on the catalytic activity of this enzyme, the catalytic parameters for the wild type and mutant enzymes were determined using pNP-β-D-cellobioside and pNP-β-D-mannopyranoside as substrates.

[5] = substrate: O=[N+]([O-])c1ccc(O[C@@H]2O[C@H](CO)[C@@H](O[C@@H]3O[C@H](CO)[C@@H](O)[C@H](O)[C@H]3O)[C@H](O)[C@H]2O)cc1; test: as above; format: biochemical, Caldanaerobius polysaccharolyticus; conditions: other: wild type Man5B 5 nM, substrate 0.06 to 10 mM, 65° C., citrate buffer pH 5.5
Description: as §1, §2, §3

Row | Protein | kcat/Km [1] | kcat/Km [2] [M⁻¹ s⁻¹] | kcat/Km [3] [M⁻¹ s⁻¹] | Km [4] [mM] | kcat [4] [s⁻¹] | kcat/Km [4] [M⁻¹ s⁻¹] | Km [5] | kcat [5] [s⁻¹] | kcat/Km [5] [M⁻¹ s⁻¹]
1 | Caldanaerobius polysaccharolyticus endo-β-mannanase Man5A truncation mutant Man5A-TM1, SEQ ID NO: 28 (Caldanaerobius polysaccharolyticus) (protein) AGTSGDGRFHVVGNKIVDPDGKDFIIKGVNIQGYRSWEKRSVLQDVHLIADVWKFNTVRLNCFIGQNNWGEGTGANNDIDAIIKAFTAKKVVVEIDLHDTTGYPPLSNPPPAPGQPSLDQAIAWFKELAAKYKDNPYVWFNTMNEPGSSTAPLDPQWKVANEEIIKAIRSTGADNIIVVDGWSYANEGIEQNTPTVDEKRSAVLTYGQDLLNADSAKNTIFAFHNYNEGDIQKKVEDYIDRANAKGLYVFMEEYGKDYSDAAKEGVKSGLQAVMNKGAGRIYWNWDGYDLYDLTSGTGRGSGWEINKTDGSKPTNLSWVGDKIWDDNHGITPTFDDQNPKVDLALERLIANNNGFKAGDKVQFTTFLRNSGDLPIGKDSKVVVKFYVDGVQLGDPVEISGGIAVGQRIPVTSPELTVSKTDFTVKAVIDSSSTYADGAEDAVIENNWIEAAFNSTAPSSGYELVVTGIKITPDTVKEGDYVQAQVTVANQGPEATPVTNIIGWFYVNGYYYTLDDAAKSCAEQDNVTLKPGESITLSTKVKYRAAAPFNFSFVLENLYADDQNQSNNSITVNVPVKMGEGGVNMVSNPGFEDGLDSWQDWQQDMSAVPEAAHNGALGLKIGGGKAAGGGQDIPLKPNTTYILGAWAKFDSKPAGTFDVVVQYHLKDANNTYVQHILNFNETDWTYKQLLFTTPDVFGSTPQLALWKGDTSKANLYVDDVYLVEVSNLIVNGTAENGMDGWPDWGYPVSAVPEAAYGGTKGFKLSGGKQAGMGQKVALKPNTTYILGAWGKFTAKPGTYCDVIVQYHLKDANNTYVQNILRFTETDWTYKQVVFTTPDAFGSDPEFVLWKDDASNADFYADNITLVEV | (1.4 ± 0.3) × 10^−2 mM^−1 s^−1 | – | – | – | – | – | – | – | –
2 | Caldanaerobius polysaccharolyticus endo-β-mannanase Man5B, wild type, SEQ ID NO: 31 (Caldanaerobius polysaccharolyticus) (protein) MKKYGFNFQWMYVWEEGREPEPPDKKALDFLAETGFNFVRIPVDYRFWTRNFDYFNPDKKVFEYIDLYLRECSARNIHMCLNLHRAPGYCINRNDIERDNLWLDKRAQDGFVYQWELFAKRYKGVSSKFLSFDLVNEPPNIGQYGLTRENHASLIIRTVEAIRKIDPDREIVIDGLGGGNIAMPELAHLGVVHSGRGYQPMALTHYQASWWDGHKGLPEPYYPDLLWQGKVWNKDTLREYYKPWRDLQQKGVNVHIGEFGCFNKTSNDVAIRWFEDVLSLYKEFEWGYSLWNFKGPFGIVEHGRPGAKYEYYRGFKVDRELLDLLVENRV | – | 1000 ± 70 | 63000 ± 6000 | 26 ± 4 | 42 ± 3 | 1600 ± 100 | (9.7 ± 1) × 10^−2 mM | 2.4 ± 0.1 | 25000 ± 2000
